Data on one molecule can be found in publication PMC8794893 (Proceedings of the National Academy of Sciences of the …, 2022).

Assay [1] concerns the target T1, Archaeoglobus fulgidus DsrAB dissimilatory sulfite reductase (Archaeoglobus fulgidus VC-16 …, UniProt Q59109 1-418; Q59110 1-366). As to the kind of experiment: SPR.
Assay [2] has as its target T1, Archaeoglobus fulgidus DsrAB …. As to the kind of experiment: MST.

T1 sequence (Q59109 whole entry, chain 1 of 2): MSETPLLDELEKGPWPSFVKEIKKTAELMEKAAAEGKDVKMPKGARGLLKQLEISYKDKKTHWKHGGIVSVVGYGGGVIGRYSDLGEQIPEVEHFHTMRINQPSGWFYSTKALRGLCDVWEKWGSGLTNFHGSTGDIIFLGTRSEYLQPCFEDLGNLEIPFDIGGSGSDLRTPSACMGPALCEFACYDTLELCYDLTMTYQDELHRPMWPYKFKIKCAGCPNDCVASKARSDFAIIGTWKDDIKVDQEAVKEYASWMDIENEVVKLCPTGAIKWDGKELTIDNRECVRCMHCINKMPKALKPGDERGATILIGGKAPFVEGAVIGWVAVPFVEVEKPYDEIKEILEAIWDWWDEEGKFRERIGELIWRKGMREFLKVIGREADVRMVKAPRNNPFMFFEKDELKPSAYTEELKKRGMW
T1 sequence (Q59110 whole entry, chain 2 of 2): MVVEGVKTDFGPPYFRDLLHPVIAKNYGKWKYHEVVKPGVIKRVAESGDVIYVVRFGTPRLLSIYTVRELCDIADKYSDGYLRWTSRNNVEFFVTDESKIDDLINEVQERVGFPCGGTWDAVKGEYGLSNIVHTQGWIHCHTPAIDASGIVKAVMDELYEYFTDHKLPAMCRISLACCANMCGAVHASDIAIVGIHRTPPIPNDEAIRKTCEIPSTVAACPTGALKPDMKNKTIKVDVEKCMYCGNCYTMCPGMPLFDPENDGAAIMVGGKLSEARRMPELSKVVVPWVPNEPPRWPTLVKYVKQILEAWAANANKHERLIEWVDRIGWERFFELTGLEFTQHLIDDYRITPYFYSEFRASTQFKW

B1: recombinant Archaeoglobus fulgidus DsrD with C-terminal His-tag (natural protein, Archaeoglobus fulgidus VC-16, UniProt P70742 1-77, looked up)
chain: MADYTEEDKQKVLAQLSKKTWKIPELAKILKMDKKVVKKIVQDLINEGVAGYWSSGSTTYVATKEYIEELEKKRAEG
modifications: RED-NHS dye on amines (Monolith NT Protein Labeling Kit RED-NHS second generation), in the MST experiment only
The Kd is the constant that tells how readily two partners part at equilibrium. High values mean weaker binding, low ones tighter binding. Take B1: the figures for the dissociation constant Kd in assay [1] and in assay [2] were 540 ± 20 nM and 350 ± 60 nM, respectively.
